US20220204601A1 (ADEL, published 2022)
Each block holds one binder with its values, some of them ahead of it. Ends that are not written are not given here.

Target: T1, K280-ac protein fragment (human)
T1 construct: also called mAC
T1 peptide: VQIINK(Ac)KLDLSN
Experiment: ELISA on K280-ac coated at 250 ng/well, HRP anti-human IgG
Protocol: In addition, binding of the K280-ac protein fragment prepared in Preparation Example 1 with the ADEL-Y01h (v01 to v12) antibodies prepared in Preparation Example 2 was measured by ELISA.
First, plates were treated with the K280-ac protein fragment at 250 ng/well and reaction was allowed to proceed at 4° C. overnight. The next day, washing with a washing buffer was performed three times, and then treatment with a primary antibody was performed with 8 concentrations (2 μg, 1 μg, 0.5 μg, 0.25 μg, 0.12 μg, 0.06 μg, 0.03 μg, 0.01 μg). As a secondary antibody, HRP-labeled anti-human IgG antibody was used.

B3: ADEL-Y01h v03 antibody (antibody, V domains shown)
VH: EVQLQESGPGLVKPSQTLSLTCTVSGDSITSGYWNWIRQPPGKGLEYIGYIRYSGRTYYNPSLKSRVTISRDTSKNQFSLKLSSVTAADTAVYYCASVYFTYWGQGTLVTVSS
VL: EVVLTQSPGTLSLSPGERATLSCKSSQSLLDSDGKTYLNWYQQKPGQSPKRLISLVSKLDSGIPDRFSGSGSGTDFTLTISRLEPEDFAVYYCWQGSHFPYTFGQGTKLEIK
notes: Humanized antibody; It was detected with anti-human IgG; also called Y01h01v03
Absorbance at 450nm at 0.01ug/well: 0.0815 | Absorbance at 450nm at 0.03ug/well: 0.17 | Absorbance at 450nm at 0.06ug/well: 0.302 | Absorbance at 450nm at 0.12ug/well: 0.641 | Absorbance at 450nm at 0.25ug/well: 1.06 | Absorbance at 450nm at 0.5ug/well: 1.51 | Absorbance at 450nm at 1ug/well: 1.79 | Absorbance at 450nm at 2ug/well: 2.06

B5: ADEL-Y01h v05 antibody (antibody, V domains shown)
VH: EVQLQQSGPGLVKPSQTLSLTCAVSGDSITSGYWNWIRQSPSRGLEWLGYIRYSGRTYYNPSLKSRITINRDTSKNQFSLQLNSVTPEDTAVYYCASVYFTYWGQGTLVTVSS
VL: DVVMTQSPDSLAVSLGERATINCKSSQSLLDSDGKTYLNWYQQKPGQSPKRLISLVSKLDSGVPDRFSGSGSGTDFTLTISSLQAEDVAVYYCWQGSHFPYTFGQGTKLEIK
notes: Humanized antibody; It was detected with anti-human IgG; also called Y01h01v05
Absorbance at 450nm at 0.01ug/well: 0.131 | Absorbance at 450nm at 0.03ug/well: 0.224 | Absorbance at 450nm at 0.06ug/well: 0.431 | Absorbance at 450nm at 0.12ug/well: 0.908 | Absorbance at 450nm at 0.25ug/well: 1.3 | Absorbance at 450nm at 0.5ug/well: 1.7 | Absorbance at 450nm at 1ug/well: 1.85 | Absorbance at 450nm at 2ug/well: 2.06

B6: ADEL-Y01h v06 antibody (antibody, V domains shown)
VH: B5 VH
VL: B3 VL
notes: Humanized antibody; It was detected with anti-human IgG; also called Y01h01v06
Absorbance at 450nm at 0.01ug/well: 0.0585 | Absorbance at 450nm at 0.03ug/well: 0.114 | Absorbance at 450nm at 0.06ug/well: 0.265 | Absorbance at 450nm at 0.12ug/well: 0.657 | Absorbance at 450nm at 0.25ug/well: 1.09 | Absorbance at 450nm at 0.5ug/well: 1.51 | Absorbance at 450nm at 1ug/well: 1.76 | Absorbance at 450nm at 2ug/well: 2.05

Results, then the binder that gave them:

Absorbance at 450nm at 0.01ug/well: 0.145 | Absorbance at 450nm at 0.03ug/well: 0.398 | Absorbance at 450nm at 0.06ug/well: 0.484 | Absorbance at 450nm at 0.12ug/well: 1.05 | Absorbance at 450nm at 0.25ug/well: 1.19 | Absorbance at 450nm at 0.5ug/well: 1.29 | Absorbance at 450nm at 1ug/well: 1.58 | Absorbance at 450nm at 2ug/well: 1.41
B1: v12 (antibody, V domains shown)
VH: EVQLVESGGGLVQPGRSLRLSCTVSGDSITSGYWNWFRQAPGKGLEYVGYIRYSGRTYYNPSLKSRFTISRDTSKNIAYLQMNSLKTEDTAVYYCASVYFTYWGQGTLVTVSS
VL: B3 VL
notes: also called Y01h01v12; ADEL-Y01h v12 antibody

Absorbance at 450nm at 0.01ug/well: 0.103 | Absorbance at 450nm at 0.03ug/well: 0.203 | Absorbance at 450nm at 0.06ug/well: 0.377 | Absorbance at 450nm at 0.12ug/well: 0.805 | Absorbance at 450nm at 0.25ug/well: 1.12 | Absorbance at 450nm at 0.5ug/well: 1.61 | Absorbance at 450nm at 1ug/well: 1.83 | Absorbance at 450nm at 2ug/well: 2.08
B2: ADEL-Y01h v02 antibody (antibody, V domains shown)
VH: B3 VH
VL: B5 VL
notes: Humanized antibody; It was detected with anti-human IgG; also called Y01h01v02

Absorbance at 450nm at 0.01ug/well: 0.354 | Absorbance at 450nm at 0.03ug/well: 0.537 | Absorbance at 450nm at 0.06ug/well: 0.822 | Absorbance at 450nm at 0.12ug/well: 1.43 | Absorbance at 450nm at 0.25ug/well: 1.74 | Absorbance at 450nm at 0.5ug/well: 2.04 | Absorbance at 450nm at 1ug/well: 2.18 | Absorbance at 450nm at 2ug/well: 2.32
B4: ADEL-Y01h v04 antibody (antibody, V domains shown)
VH: B5 VH
VL: DVVMTQSPLSLPVTLGQPASISCKSSQSLLDSDGKTYLNWFQQRPGQSPKRLISLVSKLDSGVPDRFSGSGSGTDFTLKISRVEAEDVGVYYCWQGSHFPYTFGQGTKLEIK
notes: Humanized antibody; It was detected with anti-human IgG; also called Y01h01v04
